This note sets out measurements from US20260085114A1 (KYINNO BIOTECHNOLOGY, published 2026).

Where a chain is given by its changes, count along the chain named.

The chains are these.
B1: humanized antibody 9D7 (hz) (antibody, V domains shown)
VH: QVQLQESGPGLVKPSETLSLTCTVSGYSITSDYAWNWIRQPPGKGLEWMGYISYSGSATYSPSLKSRITISRDTSKNQFSLKLSSVTAADTAVYYCARGGIAGRGRWGAMDYWGQGTTVTVSS
VL: DIQMTQSPSSLSASVGDRVTITCKASQNVGTNVAWYQQKPGQSPKALIYSASYRDSGVPDRFSGSGSGTDFTLTISSLQPEDFATYYCQQYKSYPLTFGQGTRLEIKR
B2: humanized antibody 26D1 (hz) (antibody, V domains shown)
VH: QVQLVQSGAEVKKPGASVKVSCKASGYTFTSYTIQWIKQAPGQGLEWIGYIIPSSGYTNYNQKFKDKATLTADKSSNTAYMELSSLTSEDTAVYYCANNYGNWGFTYWGQGTTVTVSS
VL: DIQMTQSPSTLSASVGDRVTITCKASQNVGSAVTWYQQKPGKAPRLLIYSASNRYTGVPDRFSGSGSGTEFTLTISSLQPDDFATYFCQQYSNYPLTFGQGTRLEIKR
B3: humanized antibody 24F5 (hz) (antibody, V domains shown)
VH: QVQLVQSGAEVKKPGASVKVSCKASGYTFPYYVMHWVRQAPGQGLEWIGYINPYNDGTKYNEKFKGRATLTSDKSTSTAYMELSSLRSEDTAVYYCARGGVRRYFDYWGQGTTVTVSS
VL: DIQMTQSPSTLSASVGDRVTITCRASQDIGSNLNWLQQKPGGTIKRLIYATSSLDSGVPSRFSGSRSGSEYTLTISSLQPDDFATYYCLQYATFPYTFGQGTRLEIKR
B4: humanized antibody 6E97 (hz) (antibody, V domains shown)
VH: B3 VH with M34I, D56A
VL: B3 VL with M4L, Y49S
B5: humanized anti-CD3 antibody SP34V1 (hz) (antibody, V domains shown)
VH: QVQLVESGGGLVKPGGSLRLSCAASGFTFSTYAMNWVRQAPGKGLEWVGRIRSKYNNYATYYADSVKDRFTISRDDAKNSLYLQMNSLRAEDTAVYYCARHGNFGNSYVSYFAYWGQGTTVTVSS
VL: DIQMTQSPSSLSASVGDRVTITCRSSTGAVTTSNYANWVQQKPGKAPKALIGGTNKRAPGVPSRFSGSLSGDDATLTISSLQPEDFATYYCALWYSNLWVFGQGTRLEIKR

T1 sequence (Q9NZD1 whole entry): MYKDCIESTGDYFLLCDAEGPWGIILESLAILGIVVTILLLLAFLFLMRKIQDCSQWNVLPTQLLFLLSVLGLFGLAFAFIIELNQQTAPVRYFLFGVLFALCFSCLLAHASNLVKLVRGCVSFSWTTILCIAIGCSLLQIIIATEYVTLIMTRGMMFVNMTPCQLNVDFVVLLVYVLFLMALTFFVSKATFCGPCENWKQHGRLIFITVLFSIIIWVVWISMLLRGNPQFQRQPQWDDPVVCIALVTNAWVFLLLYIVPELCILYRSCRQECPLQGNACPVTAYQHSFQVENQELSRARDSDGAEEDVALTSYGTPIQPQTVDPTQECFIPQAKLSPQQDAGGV

One assay concerns the target T1, human GPRC5D (G protein-coupled receptor class C group 5 member D), on cells (human, UniProt Q9NZD1 1-345).
T1 construct: whole, on cells; also called hGPRC5D
Nature of the assay: FACS on MOLP8 multiple myeloma cells. As to the method:
(§1) 100 μl of FACS buffer was then added to each FACS tube for resuspension. 5 μl of PE-labeled, anti-murine Fc tagged secondary antibody (Biolegend, catalog number 409304) was added according to instructions, and incubated at 4° C. in the dark for 30 mins. Then 1 ml of FACS buffer was added, and centrifuged at 1200 rpm at room temperature for 5 mins. The supernatant was discarded followed by washing three times.
(§2) The experimental process was as described in Example 4, and the cells used were replaced with multiple myeloma cells MM.1R (Kyinno, catalog number KC-0619) and MOLP8 (Kyinno, catalog number KC-0622). […] Control tube 1 (no antibody and secondary antibody, adding only cell suspension) and Control tube 2 (no antibody, adding only cell suspension and secondary antibody) were included.
As a reminder, the EC50 is the concentration giving half of the maximal effect. Take B1: a half-maximal response (EC50) required 0.313 µg/mL and the MFI.Max was 128 MFI.

B2 showed an EC50 of 0.964 µg/mL and an MFI.Max of 78 MFI.

In the case of B3, a half-maximal effect (EC50) was put at 0.581 µg/mL and the MFI.Max is 133 MFI.

With B4, the EC50 stood at 0.256 µg/mL and the MFI.Max is 144 MFI.

The target in the next assay is T1, human GPRC5D (G protein-coupled …). Nature of the assay: FACS on MM.1R multiple myeloma cells. As for the experimental part:
as §1, §2
B1 came in with an EC50 of 0.09 µg/mL and an MFI.Max of 150 MFI.

Regarding B2, the EC50 was 0.571 µg/mL and the MFI.Max is 185 MFI.

On to B3, for which the response was half-maximal at 0.0682 µg/mL (EC50) and the MFI.Max came out at 177 MFI.

Molecule B4 returned an EC50 of 0.146 µg/mL and an MFI.Max of 246 MFI.

For a further assay, the target named is T2, human GPRC5D protein (KACTUS, catalog number GPR-HM05P) (human, UniProt Q9NZD1 1-345, limits assumed).
T2 construct: Bought reagent used as analyte in the Fortebio assay; the construct is not described
T2 sequence (Q9NZD1 whole entry): as above
Nature of the assay: Fortebio BLI, antibody captured on AHC chip, human GPRC5D protein as analyte. As for the experimental part: Antibodies to be tested were prepared into solutions at concentration of 10 μg/mL using PBS buffer, and the antibodies were captured using the AHC chip according to Fortebio's instructions. The pre-prepared human GPRC5D proteins (KACTUS, catalog number GPR-HM05P) (protein starting at a highest concentration of 200 nM, 2-fold diluted, 6 gradients) were flowed through the chip, with the following specific conditions: flow rate 30 μl/min; antigen-antibody binding time 200 seconds, dissociation time 500 seconds. The measured results were fitted using the supporting software designed for the device to analyze the affinity between an antibody and an antigen.
(In general: BLI is a label-free optical method that tracks binding on a fibre tip over time.)
The term Kd denotes the free concentration of one partner at which half of the binding sites on the other are occupied at equilibrium, for simple one-to-one binding. What is called koff is a measure of how fast the partners let go of each other. As a reminder, the kon is a measure of how fast the partners come together. Turning to B1, the Kd is below 0.001 nM, the koff is below 1e-07 s⁻¹ and the kon was determined as 22600 M⁻¹ s⁻¹.

In turn, B2 displayed a Kd of 1.7 nM, a koff of 3.15e-05 s⁻¹ and an on-rate (kon) of 18500 M⁻¹ s⁻¹.

Turning to B3, the Kd amounted to 1.36 nM, the dissociation rate constant (koff) was 5.42e-05 s⁻¹ and the on-rate constant (kon) is 39900 M⁻¹ s⁻¹.

B4 showed a Kd of 0.458 nM, a koff of 2.08e-05 s⁻¹ and a kon of 45500 M⁻¹ s⁻¹.

The target in another assay is T1, human GPRC5D (G protein-coupled …). Nature of the assay: cell-based or functional assay.
With B1, the “ADCC reporter (Jurkat-NFAT-luc-CD16-V158 luciferase), Top” value (“ADCC reporter … Top” below) is 24.5.

Turning to B2, the “ADCC reporter (Jurkat-NFAT-luc-CD16-V158 luciferase), EC50” value came to 0.0452 µg/mL and the “ADCC reporter … Top” value stood at 18.4.

As for B3, the “ADCC reporter … Top” value came to 25.4.

On to B4, for which the “ADCC reporter … Top” value was 32.8.

The target in another assay is T3, human GPRC5A, on 293T cells (human, UniProt Q8NFJ5 1-357).
T3 construct: whole, on cells; also called 293T-GPRC5A
T3 sequence (Q8NFJ5 whole entry): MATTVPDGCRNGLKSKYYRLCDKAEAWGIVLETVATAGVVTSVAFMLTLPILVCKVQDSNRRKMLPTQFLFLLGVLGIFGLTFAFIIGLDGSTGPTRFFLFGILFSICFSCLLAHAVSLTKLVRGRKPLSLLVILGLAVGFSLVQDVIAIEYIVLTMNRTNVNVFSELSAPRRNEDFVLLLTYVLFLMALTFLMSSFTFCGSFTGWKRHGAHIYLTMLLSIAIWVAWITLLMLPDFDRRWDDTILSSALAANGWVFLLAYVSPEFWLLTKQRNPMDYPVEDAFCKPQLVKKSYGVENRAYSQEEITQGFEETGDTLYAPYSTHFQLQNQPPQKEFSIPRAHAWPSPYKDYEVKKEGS
Briefly: FACS on 293T-GPRC5A cells, antibody at 2 µg/mL; control tubes 8.30 and 8.41. As to the method: as §1
(§3) The experimental process was as described in Example 4, cells expressing other members of G protein-coupled receptor class C group 5 as follows were used: 293T cells expressing human GPRC5A, 293T-GPRC5A (Kyinno, catalog number KC-1888), 293T cells expressing human GPRC5B, 293T-GPRC5B (Kyinno, catalog number KC-1854), and 293T cells expressing human GPRC5C, 293T-GPRC5C (Kyinno, catalog number KC-1889). […] Control tube 1 (no antibody and secondary antibody, adding only cell suspension) and Control tube 2 (no antibody, adding only cell suspension and secondary antibody) were included.
For B1, the FACS result stood at 8.34.

With B2, the FACS result was found to be 8.46.

In the case of B3, the FACS result is 8.45.

Take B4: the FACS result is 8.54.

The next assay deals with T1, human GPRC5D (G protein-coupled …). Briefly: FACS on 293T cells expressing human GPRC5D. As to the method: as §1
Control tube 1 (no antibody and secondary antibody, adding only the cell suspension) and Control tube 2 (no antibody, adding only the cell suspension and the secondary antibody) were included.
Take B1: the EC50 is 0.283 µg/mL and the MFI.Max is 8940 MFI.

The molecule B2 came in with an EC50 of 0.228 µg/mL and an MFI.Max of 9560 MFI.

As for B3, the EC50 amounted to 0.7 µg/mL and the MFI.Max worked out at 8910 MFI.

As to B4, the midpoint of the response, the EC50, lay at 0.351 µg/mL and the MFI.Max is 14800 MFI.

The target in a further assay is T4, human GPRC5C, on 293T cells (human, UniProt Q9NQ84 24-441).
T4 construct: whole, on cells; also called 293T-GPRC5C
T4 sequence (Q9NQ84 24-441): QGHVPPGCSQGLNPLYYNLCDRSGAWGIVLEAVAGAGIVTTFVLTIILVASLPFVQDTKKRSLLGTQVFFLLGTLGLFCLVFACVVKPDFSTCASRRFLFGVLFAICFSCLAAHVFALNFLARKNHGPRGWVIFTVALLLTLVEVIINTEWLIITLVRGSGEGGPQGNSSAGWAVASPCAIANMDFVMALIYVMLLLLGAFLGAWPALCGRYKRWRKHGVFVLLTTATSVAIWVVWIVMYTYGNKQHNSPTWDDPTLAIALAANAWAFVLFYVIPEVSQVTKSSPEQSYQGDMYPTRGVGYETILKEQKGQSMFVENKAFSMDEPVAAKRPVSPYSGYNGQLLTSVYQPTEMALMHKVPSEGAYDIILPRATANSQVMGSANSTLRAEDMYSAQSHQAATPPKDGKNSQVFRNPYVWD
Nature of the assay: FACS on 293T-GPRC5C cells, antibody at 2 µg/mL; control tubes 8.86 and 8.73. As for the experimental part: as §1, §3
With B1, the FACS result is 8.48.

With B2, the FACS result was 8.89.

B3: the FACS result came out at 8.97.

With B4, the FACS result was 8.78.

For another assay, the target named is human CD3 protein (KACTUS) (human). Briefly: Fortebio BLI, antibody captured on AHC chip, human CD3 protein as analyte.
Chain of human CD3 protein (KACTUS) (human) (chain, as listed by the source): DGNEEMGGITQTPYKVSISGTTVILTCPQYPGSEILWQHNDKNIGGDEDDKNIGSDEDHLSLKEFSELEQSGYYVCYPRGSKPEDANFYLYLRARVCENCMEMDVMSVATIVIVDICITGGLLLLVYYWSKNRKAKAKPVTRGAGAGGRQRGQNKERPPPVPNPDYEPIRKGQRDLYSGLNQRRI
B5 showed a Kd of 18 nM, a koff of 0.00795 s⁻¹ and a kon of 442000 M⁻¹ s⁻¹.

A further assay deals with T5, monkey (cyno) GPRC5D, on 293T cells (monkey (cyno)).
T5 construct: whole, on cells; also called monkey GPRC5D
Nature of the assay: FACS on 293T cells expressing monkey (cyno) GPRC5D. As to the method: as §1
The experimental process was as described in Example 4. […] Control tube 1 (no antibody and secondary antibody, adding only cell suspension) and Control tube 2 (no antibody, adding only cell suspension and secondary antibody) were included.
For the molecule B1, a half-maximal response (EC50) required 0.378 µg/mL and the MFI.Max came out at 4260 MFI.

B2 displayed an MFI.Max of 12.3 MFI.

The molecule B3 showed a concentration for a half-maximal effect (EC50) of 0.167 µg/mL and an MFI.Max of 3560 MFI.

Turning to B4, the EC50 was determined as 0.192 µg/mL and the MFI.Max was 6250 MFI.

In the next assay the target is T6, human GPRC5B, on 293T cells (human, UniProt Q9NZH0 29-403).
T6 construct: whole, on cells; also called 293T-GPRC5B
T6 sequence (Q9NZH0 29-403): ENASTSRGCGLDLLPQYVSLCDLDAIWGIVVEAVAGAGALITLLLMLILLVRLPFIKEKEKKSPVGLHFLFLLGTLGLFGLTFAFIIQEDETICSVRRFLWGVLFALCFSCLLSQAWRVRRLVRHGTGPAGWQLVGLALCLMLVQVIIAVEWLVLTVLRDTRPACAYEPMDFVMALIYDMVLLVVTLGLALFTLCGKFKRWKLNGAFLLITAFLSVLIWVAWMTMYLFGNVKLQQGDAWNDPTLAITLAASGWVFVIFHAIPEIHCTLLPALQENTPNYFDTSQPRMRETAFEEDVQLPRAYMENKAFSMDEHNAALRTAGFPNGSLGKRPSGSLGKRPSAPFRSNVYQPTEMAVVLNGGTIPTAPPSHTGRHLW
Briefly: FACS on 293T-GPRC5B cells, antibody at 2 µg/mL; control tubes 8.55 and 8.26. As to the method: as §1, §3
In turn, B1 showed an FACS result of 8.54.

B2 yielded an FACS result of 8.59.

In turn, B3 registered an FACS result of 8.58.

B4 registered an FACS result of 8.62.
